Results published in patent US7252824B2, “Anti-neovasculature preparations for cancer” (Mannkind Corporation, priority 2001, dated 2007).
Values belong to the molecule of their own block, whether it stands above or below them.

Experiments:
HLA-A2.1 = HLA-A2.1 (Homo sapiens, UniProt P04439, D140Y/D185E/D98H/E176V/E277Q/G131W/G231S/I119V/I121R/I166T/I218V/L300P/L318F/N151K/N90K/P208A/P217A/Q86G/Q94H/R138H/R169H/T345S); assay: HLA-A*0201 binding assay (stabilization of surface HLA-A2.1 on T2 cells, flow cytometry); details: for binding to HLA-A2.1: T2 cells, peptide 6.25-800 μg/ml, compared with control peptides
HLA-A1+ CD8+ T cells = assay: gamma-IFN-based ELISPOT assay; assay type: cell-based, human; details: IFN production blocked by anti-HLA-A1 monoclonal antibody
Protocol: The wells of a nitrocellulose-backed microtiter plate were coated with capture antibody by incubating overnight at 4° C. using 50 μl/well of 4 μg/ml murine anti-human −IFN monoclonal antibody in coating buffer (35 mM sodium bicarbonate, 15 mM sodium carbonate, pH 9.5). Unbound antibody was removed by washing 4 times 5 min. with PBS. Unbound sites on the membrane then were blocked by adding 200 μl/well of RPMI medium with 10% serum and incubating 1 hr. at room temperature. Antigen stimulated CD8^+ T cells, in 1:3 serial dilutions, were seeded into the wells of the microtiter plate using 100 μl/well, starting at 2×10^5 cells/well. […] Following this incubation the plates were washed with 6 times 200 μl/well of PBS containing 0.05% Tween-20 (PBS-Tween). Detection antibody, 50 μl/well of 2 μg/ml biotinylated murine anti-human −IFN monoclonal antibody in PBS+10% fetal calf serum, was added and the plate incubated at room temperature for 2 hrs. Unbound detection antibody was removed by washing with 4 times 200 μl of PBS-Tween. 100 μl of avidin-conjugated horseradish peroxidase (Pharmingen, San Diego, Calif.) was added to each well and incubated at room temperature for 1 hr. Unbound enzyme was removed by washing with 6 times 200 μl of PBS-Tween. […] The plate was air dried and the spots counted using a stereomicroscope.
No reactivity is detected from cultures without peptide (data not shown).

peptide pulsed T2 cells = assay: Epitope specific lysis by CTL from peptide-immunized HHD-A2 mice; assay type: in vivo; details: HHD-A2 mice immunized with peptide in complete Freund's adjuvants, spleen cells re-stimulated in vitro; HLA-A2+ T2 targets
Text: HHD-A2 mice were immunized with ED-B29-38 (SEQ ID NO. 103) in complete Freund's adjuvants and spleen cells were harvested and re-stimulated in vitro using standard methodology.

[1] = molecular target: T1, HLA-A2.1 (HLA-A*0201) on T2 cells (human); assay: T2 cell HLA-A2.1 stabilisation, flow cytometry with FITC anti-HLA-A2
T1 construct: MHC class I molecule on T2 cells; also called HLA-A2+ T2 cells

Molecule: GLPSIPVHPI (Homo sapien) [SEQ ID NO 21]
- binding to HLA-A2.1 (HLA-A2.1): significant binding at even lower concentrations than the positive control peptides

Molecule: GMPEGDLVYV (Homo sapien) [SEQ ID NO 6]
- binding to HLA-A2.1 (HLA-A2.1): significant binding at even lower concentrations than the positive control peptides

Molecule: MMNDQLMFL [SEQ ID NO 39]
- binding to HLA-A2.1 (HLA-A2.1): significant binding at even lower concentrations than the positive control peptide

Molecule: RMMNDQLMFL (Homo sapien) [SEQ ID NO 40]
- binding to HLA-A2.1 (HLA-A2.1): significant binding at even lower concentrations than the positive control peptide
- binding activity / affinity by comparison to the controls (HLA-A2.1; not run in parallel): approaches the Melan A peptide in affinity

Molecule: RVDCTPLMY [SEQ ID NO 35]
- HLA restriction of the response (HLA-A1+ CD8+ T cells): HLA-A1-restricted response

Molecule: TIIGYRITVV (Homo sapien) [SEQ ID NO 103]
- epitope specific lysis by CTL (peptide pulsed T2 cells): able to specifically lyse peptide pulsed T2 cells

- binding to HLA-A2.1 (HLA-A2.1): binds nearly as well
Molecule: TLRVDCTPL (Homo sapien) [SEQ ID NO 32]

- binding result [1]: binds
B1: PSMA663-671 (peptide)
peptide: MMNDQLMFL
